In PMC9456107, “DNA Motifs and an Accessory CRISPR Factor Determine Cas1 Binding and Integration Activity in Sulfolobus islandicus”:

What was measured:
[1] = target: T1, PfuCas1 (Pyrococcus furiosus COM1, UniProt I6TWX9 1-322); test: EMSA; EMSA on 12% native PAGE, 0.3 uM FAM probe (0.5 uM P1 in Fig S3); buffer, pH and temperature not stated (refers to earlier work); conditions: protein: recombinant, tags: C-terminal His, chain copies: 2, label: 5'-FAM
T1 sequence: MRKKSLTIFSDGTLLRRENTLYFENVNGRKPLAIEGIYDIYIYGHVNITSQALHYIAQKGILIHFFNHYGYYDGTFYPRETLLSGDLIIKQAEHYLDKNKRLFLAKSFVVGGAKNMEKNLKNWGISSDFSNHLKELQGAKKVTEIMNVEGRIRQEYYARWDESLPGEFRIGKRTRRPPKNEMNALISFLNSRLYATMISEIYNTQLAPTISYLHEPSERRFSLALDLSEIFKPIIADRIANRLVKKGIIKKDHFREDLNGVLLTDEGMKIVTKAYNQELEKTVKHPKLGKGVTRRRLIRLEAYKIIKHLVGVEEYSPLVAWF

[2] = target: T2, Cas2 (SisCas2) (Sulfolobus islandicus REY15A, UniProt F0NH44 1-89); test: EMSA; 3.3 and 6.7 uM Cas2; EMSA on 12% native PAGE, 0.3 uM FAM probe (0.5 uM P1 in Fig S3); buffer, pH and temperature not stated (refers to earlier work); conditions: protein: recombinant; tags: C-terminal His; chain copies: 2; label: 5'-FAM on sense strand; mixture of blunt duplex, ssDNA and hairpin
T2 sequence: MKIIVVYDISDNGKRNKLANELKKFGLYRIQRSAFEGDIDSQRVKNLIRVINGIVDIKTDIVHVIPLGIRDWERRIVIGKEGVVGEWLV

B1: Pfu-WT leader-repeat ssDNA (structured_DNA)
DNA: CTCCGTAGGAGGATTGGGGCAAAAAAGCCCCCTGTTCCAATAAGACTACAAAAGAATTGAAAG
B1: binds ([1]; hairpin).

B2: leader-proximal WT S/A annealed probe (5:1 or unspecified ratio, contains hairpin ssDNA) (mixed)
DNA 1: CAAATAGAGGGTTAAAAAACCCTCAGCTAATC
DNA 2: GATTAGCTGAGGGTTTTTTAACCCTCTATTTG
B2: no binding [2].

TCCTCCACTTTCCCCGTAAGGGGTCGGAGGGGGCGGTCTTTCCC (structured_DNA) [Syn-S leader ssDNA]: binds ([1]; two predicted hairpins).
